Test results: patent publication US20240374585A1, “EPITHELIAL SODIUM CHANNEL (ENAC) INHIBITOR CONJUGATES AND METHODS FOR USE THEREOF” (Lung Therapeutics, Inc., priority 2021, published 2024)
Where two headings read alike, the source gives them in different places.

Assay: Pharmacokinetics in blood, lung tissue and BALF of rats after intratracheal administration
Format: in vivo
Experimental: The pharmacokinetic profile of the conjugates of the present invention was determined in blood and lung tissue of rats.
Peptide Conj. 8 (SEQ ID NO: 45) and Conj. 9 (SEQ ID NO: 46) were formulated in 0.9% saline and intratracheally administered to 5-7 week-old rats (Sprague Dawley; male; 224-250 g). The pharmacokinetic profile of the peptide conjugates was then determined in blood and lung tissue.
For subgroup A, whole blood samples were collected from animals at 0.083, 0.25, and 0.5 hours following drug administration and for subgroup B, whole blood samples were collected at 0.75, 1, and 2 hours following drug administration for plasma analysis. Lung and bronchoalveolar lavage fluid (BALF) were collected at 0.5 and 2 hours following drug administration.
Whole blood was collected by tail nick at the predetermined time points and then maximal volume by cardiac stick for the final time point. The plasma was spun and collected within 30 minutes of collection. Upon euthanasia of the animal, a necropsy was performed and lungs harvested and weighed for analysis. After weighing the lungs, BALF was collected with 0.5 mL of 0.9% saline. The lungs were then reweighed after BALF collection. Lung, BALF, and plasma samples were frozen until analysis.
Frozen lung tissue was homogenized using a Precellys Evolution tabletop homogenizer (3×6500 rpm) with 4× dilution using normal rat plasma. 50 μL aliquots of homogenized lung tissue was then transferred into a 96 well plate for extraction with methanol. Harvested BALF was transferred in 25 μL aliquots into a 96 well plate and diluted with 25 μL of rat plasma before extraction with methanol. Plasma samples were transferred in 50 μL aliquots into a 96 well plate for extraction with methanol.
Standards were prepared by producing a working stock solution of Conj. 8 and Conj. 9 at 1 mg/mL. The Conj. 8 assay was performed using Conj. 9 as an internal standard at 1000 ng/mL. The Conj. 9 assay was performed using Conj. 8 as an internal standard at 1000 ng/mL.
Extraction was performed by direct precipitation with 3 volumes (150 μL) of methanol containing 1000 ng/ml of Conj. 8 and Conj. 9 as an internal standard. The plate was vortexed, followed by centrifugation (10 minutes at 4° C. and 2500 g) and dried down under heated nitrogen. Reconstitution was in 100 μL of initial mobile phase A (0.1% TFA: 0.1% FA in water) with 5% of mobile phase B (CAN, 0.1% TFA: 0.1% FA), before placing in an autosampler.
Plasma, lung, and BALF samples were analyzed for Conj. 8 and Conj. 9 by liquid chromatography with tandem mass spectrometry (LC/MS/MS) (API 4000; Kinetex® 2.6 μm C18 Column 50×2.1 mm; column temp.=50° C.; mobile phase A-0.1% TFA: 0.1% FA in water; mobile phase B-ACN, 0.1% TFA: 0.1% FA; flow rate-0.25 mL/min). Pharmacokinetic parameters were derived using sparse sampling noncompartmental analysis methods of Phoenix WinNonLin® version 8.0 (Certara USA, Inc.).
Tmax, the time after dosing at which the maximum concentration was observed; Cmax, the maximum observed concentration measured after dosing; AUClast, the area under the concentration versus time curve from the start of dose administration to the last observed quantifiable concentration calculated using the log/linear trapezoidal method; and MRTlast, mean residence time as defined by AUMClast/AUClast.

[1] = male, Sprague Dawley, bronchoalveolar lavage fluid (BALF), other: intratracheal; BALF; rat, IT, 5 mg/kg
[2] = male, Sprague Dawley, lung tissue, other: intratracheal; Lungs; rat, IT, 5 mg/kg
[3] = male, Sprague Dawley, lung, other: intratracheal; Lungs; rat, IT, 5 mg/kg
[4] = male, Sprague Dawley, other: intratracheal; BALF; rat, IT, 5 mg/kg
[5] = male, Sprague Dawley, other: intratracheal; Plasma; rat, IT, 5 mg/kg

Row | SMILES | MRT last [1] | Tmax (male, Sprague Dawley, inhaled or intranasal; Plasma; rat, IT, 5 mg/kg) | MRT last [2] | AUC(0-t) [3] | Tmax [3] | Cmax (male, Sprague Dawley, lung, other: intratracheal; Lungs; rat, IT, 5 mg/kg; read-out: Cmax) | AUC(0-t) [4] | Tmax [4] | Cmax (male, Sprague Dawley, other: intratracheal; BALF; rat, IT, 5 mg/kg; read-out: Cmax) | AUC(0-t) [5] | MRT last [5] | Cmax (male, Sprague Dawley, other: intratracheal; Plasma; rat, IT, 5 mg/kg; read-out: Cmax) | plasma concentration (limit of quantitation) (all plasma samples; rat, IT, 5 mg/kg) | level at 0.5 h (male, Sprague Dawley, bronchoalveolar lavage fluid (BALF); 0.5 h; rat, IT, 5 mg/kg; read-out: BALF concentration) | level at 2 h (male, Sprague Dawley, bronchoalveolar lavage fluid (BALF); 2 h; rat, IT, 5 mg/kg; read-out: BALF concentration) | Cmax (male, Sprague Dawley, rat, BALF, other: intratracheal, 5 mg/kg, BALF, IT, read-out: Cmax) | Cmax (male, Sprague Dawley, rat, lung, other: intratracheal, 5 mg/kg, Lungs, IT, read-out: Cmax) | Cmax (male, Sprague Dawley, rat, lung, other: intratracheal, 5 mg/kg, at both 0.5 h and 2 h, IT, read-out: approximate mean Cmax concentration in lung tissues)
1 | CC(=O)N[C@@H](Cc1cn(CCCCNC(N)=NC(=O)c2nc(Cl)c(N)nc2N)nn1)C(=O)NCCCCCC(=O)N[C@H](C(=O)N[C@@H](CO)C(=O)N[C@@H](CCCCN)C(=O)N[C@@H](CCCNC(=N)N)C(=O)N[C@@H](CCCNC(=N)N)C(N)=O)C(C)C [Conjugate 9, Ac-(AmilCC2-Pgy)-Ahx-VSKRR-NH2] | 39.8 min | 30 min | 55.9 min | 362 ng·h/mL | 30 min | 352 ng/mL | 2380 ng·h/mL | 30 min | 4290 ng/mL | 293 ng·h/mL | 29.5 min | 2290 ng/mL |  |  |  |  |  | 
2 | CC(=O)N[C@@H](Cc1cn(CCCCNC(N)=NC(=O)c2nc(Cl)c(N)nc2N)nn1)C(=O)NCCCCCC(=O)N[C@@H](C)C(=O)N[C@@H](CO)C(=O)N[C@@H](Cc1c[nH]cn1)C(=O)N[C@@H](CC(C)C)C(=O)N[C@@H](CCCNC(=N)N)C(=O)N[C@@H](CCCCN)C(=O)N[C@@H](CC(C)C)C(=O)N[C@@H](CCCNC(=N)N)C(=O)N[C@@H](CCCCN)C(=O)N[C@@H](CCCNC(=N)N)C(=O)N[C@@H](CC(C)C)C(=O)N[C@@H](CC(C)C)C(N)=O [Conjugate 8] | 75.6 min |  | 69.6 min | 22500 ng·h/mL | 120 min |  | 5910 ng·h/mL | 120 min |  |  |  |  | < 25 ng/mL | 2910 ng/mL | 3990 ng/mL | 3990 ng/mL | 13200 ng/mL | ~13000 ng/mL
